Data published in patent US20230139516A1 (CEDARS SINAI MEDICAL CENTER, published 2023).

Tests used:
c-Myc = target: T1, c-Myc (human, UniProt P01106-1 1-439, limits assumed); test: PLA of endogenous proteins in HEK293T cells (FIG. 21B)
T1 construct: also called c-Myc oncoprotein

[1] = target: T2, receptor-interacting protein kinase 2 (RIPK2), endogenous (human, UniProt O43353 1-540); test: PLA of endogenous proteins in HEK293T and parental PC cells (FIG. 20A-B)
T2 construct: Endogenous protein detected in cells with anti-RIPK2 antibodies (PLA, IP)

[2] = target: T3, 3×FLAG-tagged RIPK2 (RIPK2m4 with C-terminal 3×FLAG tag) (human, UniProt O43353 1-540); test: IP of RIPK2 complexes, label-free MS (heatmap and LFQ histogram, FIG. 5A-B)
T3 construct: The same label (3×Flag-tagged RIPK2, expressed in HeLa cells) is the enzyme of the in vitro kinase assay; also called RIPK2-Flag; RIPK2m4-3×FLAG; not shown: 3×FLAG tag fused to the C-terminus

Measured: binding result

T1 sequence (P01106 16-454 limits assumed): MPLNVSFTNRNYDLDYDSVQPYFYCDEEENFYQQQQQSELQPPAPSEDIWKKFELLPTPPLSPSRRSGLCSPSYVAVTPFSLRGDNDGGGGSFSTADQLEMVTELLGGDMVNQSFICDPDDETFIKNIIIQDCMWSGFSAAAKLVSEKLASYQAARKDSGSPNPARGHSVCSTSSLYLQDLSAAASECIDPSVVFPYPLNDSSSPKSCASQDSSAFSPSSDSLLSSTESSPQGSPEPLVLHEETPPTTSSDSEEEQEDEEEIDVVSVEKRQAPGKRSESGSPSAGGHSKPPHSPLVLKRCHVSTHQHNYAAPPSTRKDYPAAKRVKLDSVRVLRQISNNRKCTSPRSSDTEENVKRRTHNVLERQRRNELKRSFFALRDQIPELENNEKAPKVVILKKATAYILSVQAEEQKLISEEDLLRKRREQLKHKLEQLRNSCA
T2 sequence (O43353 whole entry): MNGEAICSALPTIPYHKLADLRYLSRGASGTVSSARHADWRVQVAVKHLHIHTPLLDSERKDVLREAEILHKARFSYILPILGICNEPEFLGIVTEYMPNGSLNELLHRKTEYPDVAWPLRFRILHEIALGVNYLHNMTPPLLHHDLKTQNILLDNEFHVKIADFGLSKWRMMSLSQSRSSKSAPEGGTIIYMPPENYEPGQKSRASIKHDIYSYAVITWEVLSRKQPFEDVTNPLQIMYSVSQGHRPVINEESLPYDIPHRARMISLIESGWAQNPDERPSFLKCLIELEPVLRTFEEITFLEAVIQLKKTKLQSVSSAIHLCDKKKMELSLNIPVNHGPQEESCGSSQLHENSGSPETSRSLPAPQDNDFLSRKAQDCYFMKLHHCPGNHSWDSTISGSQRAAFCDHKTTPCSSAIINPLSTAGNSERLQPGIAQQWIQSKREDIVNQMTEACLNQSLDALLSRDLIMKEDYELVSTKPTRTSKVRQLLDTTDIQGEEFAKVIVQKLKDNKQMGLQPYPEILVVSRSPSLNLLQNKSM
T3 sequence (O43353 whole entry, the tested form may be a part): as the sequence (O43353 whole entry) above

B1: MKK7 (MAP2K7), endogenous (enzyme, human, UniProt O14733 2-419, looked up)
chain: AASSLEQKLSRLEAKLKQENREARRRIDLNLDISPQRPRPTLQLPLANDGGSRSPSSESSPQHPTPPARPRHMLGLPSTLFTPRSMESIEIDQKLQEIMKQTGYLTIGGQRYQAEINDLENLGEMGSGTCGQVWKMRFRKTGHVIAVKQMRRSGNKEENKRILMDLDVVLKSHDCPYIVQCFGTFITNTDVFIAMELMGTCAEKLKKRMQGPIPERILGKMTVAIVKALYYLKEKHGVIHRDVKPSNILLDERGQIKLCDFGISGRLVDSKAKTRSAGCAAYMAPERIDPPDPTKPDYDIRADVWSLGISLVELATGQFPYKNCKTDFEVLTKVLQEEPPLLPGHMGFSGDFQSFVKDCLTKDHRKRPKYNKLLEHSFIKRYETLEVDVASWFKDVMAKTESPRTSGVLSQPHLPFFR
binds: all assays above
